Measurements from publication PMC12445344, “Influence of Calcium Ions on the Membrane Binding of S100B Protein” (Langmuir, 2025).

Target: the molecule itself
Test: native gel or EMSA; Coomassie-stained 16% native gel; dimeric S100B sample

B1: S100B protein (natural protein, human)
chain: SELEKAMVALIDVFHQYSGREGDKHKLKKSELKELINNELSHFLEEIKEQEVVDKVMETLDNDGDGECDFQEFMAFVAMVTTACHEFFEHE
notes: S100B, Homo sapiens, UniProt P04271; Gene carried in the pETDuet-1 vector; The protein is a homodimer as purified; the monomer was obtained by extensive dialysis against deionized water; also called dimeric S100B; monomeric S100B; source: E. coli BL21-CodonPlus (DE3)-RIL, purified (ammonium sulfate, HiTrap Q XL anion exchange)
- binding result: binds
